In patent US12365732:
One block for each substance: values may come before it.

Key:
[1] = target: hu-CD96 isoform 1 on HEK293T cells (human) (UniProt P40200); test: FACS, Ab 2 nM
[2] = target: hu-CD96 isoform 2 on CHO cells (human) (UniProt P40200); test: FACS, Ab 2 nM
[3] = target: hu-CD96 isoform 1 on HEK293T cells (human) (UniProt P40200); test: FACS, Ab 10 nM
[4] = target: hu-CD96 isoform 2 on CHO cells (human) (UniProt P40200); test: FACS, Ab 10 nM
[5] = target: hu-CD96 isoform 1 on HEK293T cells (human) (UniProt P40200); test: FACS, Ab 50 nM
[6] = target: hu-CD96 isoform 2 on CHO cells (human) (UniProt P40200); test: FACS, Ab 50 nM
[7] = target: cynomolgus monkey CD96 on cynomolgus monkey PBMCs (cynomolgus monkey); test: FACS, Ab 16 nM
[8] = target: human CD96 on primary human immune cells (PBMCs, NK cells, CD4+ T cells) (human) (UniProt P40200); test: FACS, Ab 16 nM
[9] = target: cynomolgus monkey CD96 on cynomolgus monkey PBMCs (cynomolgus monkey); test: FACS, Ab 80 nM
[10] = target: human CD96 on primary human immune cells (PBMCs, NK cells, CD4+ T cells) (human) (UniProt P40200); test: FACS, Ab 80 nM
[11] = target: hu-CD96 isoform 1 on HEK293T cells (human) (UniProt P40200); test: FACS, Ab 0.4 nM
[12] = target: hu-CD96 isoform 2 on CHO cells (human) (UniProt P40200); test: FACS, Ab 0.4 nM
[13] = target: cynomolgus monkey CD96 on cynomolgus monkey PBMCs (cynomolgus monkey); test: FACS, Ab 3.2 nM
[14] = target: human CD96 on primary human immune cells (PBMCs, NK cells, CD4+ T cells) (human) (UniProt P40200); test: FACS, Ab 3.2 nM
[15] = target: hu-CD96 isoform 1 on HEK293T cells (human) (UniProt P40200); test: FACS, Ab 0.08 nM
[16] = target: hu-CD96 isoform 2 on CHO cells (human) (UniProt P40200); test: FACS, Ab 0.08 nM
[17] = target: cynomolgus monkey CD96 on cynomolgus monkey PBMCs (cynomolgus monkey); test: FACS, Ab 0.64 nM
[18] = target: human CD96 on primary human immune cells (PBMCs, NK cells, CD4+ T cells) (human) (UniProt P40200); test: FACS, Ab 0.64 nM
[19] = target: hu-CD96 isoform 1 on HEK293T cells (human) (UniProt P40200); test: FACS, Ab 0.016 nM
[20] = target: hu-CD96 isoform 2 on CHO cells (human) (UniProt P40200); test: FACS, Ab 0.016 nM
[21] = target: cynomolgus monkey CD96 on cynomolgus monkey PBMCs (cynomolgus monkey); test: FACS, Ab 0.128 nM
[22] = target: human CD96 on primary human immune cells (PBMCs, NK cells, CD4+ T cells) (human) (UniProt P40200); test: FACS, Ab 0.128 nM
[23] = target: hu-CD96 isoform 2 on CHO cells (human) (UniProt P40200); test: FACS, Ab 0.0032 nM
[24] = target: cynomolgus monkey CD96 on cynomolgus monkey PBMCs (cynomolgus monkey); test: FACS, Ab 0.0256 nM
[25] = target: human CD96 on primary human immune cells (PBMCs, NK cells, CD4+ T cells) (human) (UniProt P40200); test: FACS, Ab 0.0256 nM
[26] = target: cynomolgus monkey CD96 on cynomolgus monkey PBMCs (cynomolgus monkey); test: FACS, Ab 0.00512 nM
[27] = target: human CD96 on primary human immune cells (PBMCs, NK cells, CD4+ T cells) (human) (UniProt P40200); test: FACS, Ab 0.00512 nM
[28] = target: hu-CD96 isoform 2 on CHO cells (human) (UniProt P40200); test: FACS, CD155-Fc-FLAG 10 nM, Ab 4 nM
[29] = target: hu-CD96 isoform 2 on CHO cells (human) (UniProt P40200); test: FACS, CD155-Fc-FLAG 10 nM, Ab 20 nM
[30] = target: hu-CD96 isoform 2 on CHO cells (human) (UniProt P40200); test: FACS, CD155-Fc-FLAG 10 nM, Ab 0.8 nM
[31] = target: hu-CD96 isoform 2 on CHO cells (human) (UniProt P40200); test: FACS, CD155-Fc-FLAG 10 nM, Ab 100 nM
[32] = target: hu-CD96 isoform 2 on CHO cells (human) (UniProt P40200); test: FACS, CD155-Fc-FLAG 10 nM, Ab 0.16 nM
[33] = target: hu-CD96 isoform 2 on CHO cells (human) (UniProt P40200); test: FACS, CD155-Fc-FLAG 10 nM, Ab 0.032 nM
[34] = target: hu-CD96 isoform 2 on CHO cells (human) (UniProt P40200); test: FACS, CD155-Fc-FLAG 10 nM, Ab 0.0064 nM
[35] = target: cynomolgus monkey CD96 on cynomolgus monkey PBMCs (cynomolgus monkey); test: FACS, % positive curve
[36] = target: hu-CD96 isoform 2 on CHO cells (human) (UniProt P40200); test: FACS, % positive curve
[37] = target: human CD96 on primary human immune cells (PBMCs, NK cells, CD4+ T cells) (human) (UniProt P40200); test: FACS, % positive curve
[38] = target: human CD96 on primary human immune cells (PBMCs, NK cells, CD4+ T cells) (human) (UniProt P40200); test: cell-based or functional assay
hu-CD96D1 D3-hFc (human) = test: ELISA, coated CD96D1D3-hFc
Sequence of hu-CD96D1 D3-hFc (human) (chain, as listed by the source limits assumed): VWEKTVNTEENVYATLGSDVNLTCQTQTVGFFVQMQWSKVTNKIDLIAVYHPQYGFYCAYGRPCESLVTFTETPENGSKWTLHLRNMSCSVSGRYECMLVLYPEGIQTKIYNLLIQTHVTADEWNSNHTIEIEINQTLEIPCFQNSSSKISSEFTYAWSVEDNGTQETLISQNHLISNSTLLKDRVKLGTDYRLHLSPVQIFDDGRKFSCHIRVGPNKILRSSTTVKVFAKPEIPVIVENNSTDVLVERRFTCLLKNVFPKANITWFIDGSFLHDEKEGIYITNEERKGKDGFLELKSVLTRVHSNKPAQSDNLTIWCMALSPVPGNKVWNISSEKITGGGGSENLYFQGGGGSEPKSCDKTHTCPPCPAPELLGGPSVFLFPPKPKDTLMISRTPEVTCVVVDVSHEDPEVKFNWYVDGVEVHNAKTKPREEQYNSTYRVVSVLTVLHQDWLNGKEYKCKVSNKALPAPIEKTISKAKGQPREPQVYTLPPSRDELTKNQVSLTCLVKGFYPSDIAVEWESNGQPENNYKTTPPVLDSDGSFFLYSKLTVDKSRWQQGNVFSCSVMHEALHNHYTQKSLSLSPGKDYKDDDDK

[39] = target: hu-CD96 (soluble, isoform 2 extracellular domain) (human) (UniProt P40200); test: SPR 25C, IgG captured, CD96 analyte
hu-CD96 Fc (human) = test: SPR 37C, biotin-CD96-Fc captured, IgG analyte
Sequence of hu-CD96 Fc (human) (chain, as listed by the source): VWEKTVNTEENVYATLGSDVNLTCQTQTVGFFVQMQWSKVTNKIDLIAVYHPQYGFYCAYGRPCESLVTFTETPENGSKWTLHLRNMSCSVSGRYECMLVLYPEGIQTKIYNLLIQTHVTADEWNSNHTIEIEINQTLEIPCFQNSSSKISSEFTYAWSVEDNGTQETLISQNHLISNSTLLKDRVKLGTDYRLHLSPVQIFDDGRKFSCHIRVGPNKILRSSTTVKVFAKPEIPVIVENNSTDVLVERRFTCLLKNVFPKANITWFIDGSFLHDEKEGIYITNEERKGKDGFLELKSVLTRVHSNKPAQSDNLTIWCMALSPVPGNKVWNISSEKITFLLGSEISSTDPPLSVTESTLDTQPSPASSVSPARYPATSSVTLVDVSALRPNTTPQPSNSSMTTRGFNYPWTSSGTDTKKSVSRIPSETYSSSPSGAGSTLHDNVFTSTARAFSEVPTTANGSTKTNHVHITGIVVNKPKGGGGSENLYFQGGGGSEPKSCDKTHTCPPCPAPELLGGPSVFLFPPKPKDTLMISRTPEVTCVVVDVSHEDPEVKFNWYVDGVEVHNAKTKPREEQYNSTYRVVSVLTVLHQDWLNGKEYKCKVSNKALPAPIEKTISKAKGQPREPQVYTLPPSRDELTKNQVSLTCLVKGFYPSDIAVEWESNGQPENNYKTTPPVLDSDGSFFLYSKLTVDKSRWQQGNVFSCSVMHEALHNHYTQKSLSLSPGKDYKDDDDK

[40] = target: hu-CD96 isoform 2 on CHO cells (human) (UniProt P40200); test: FACS, blocks 10 nM CD155-Fc-FLAG binding to CD96-CHO
[41] = target: recombinant hu-CD96 (M1-M503-polyHis) (human) (UniProt P40200); test: ELISA, blocks hu-CD96-his binding to coated CD155-hFc
[42] = target: cy-CD226 His tag (cynomolgus monkey); test: SPR 25C, biotin-CD226-His captured, IgG analyte
Sequence of cy-CD226 His tag (cynomolgus monkey) (chain, as listed by the source): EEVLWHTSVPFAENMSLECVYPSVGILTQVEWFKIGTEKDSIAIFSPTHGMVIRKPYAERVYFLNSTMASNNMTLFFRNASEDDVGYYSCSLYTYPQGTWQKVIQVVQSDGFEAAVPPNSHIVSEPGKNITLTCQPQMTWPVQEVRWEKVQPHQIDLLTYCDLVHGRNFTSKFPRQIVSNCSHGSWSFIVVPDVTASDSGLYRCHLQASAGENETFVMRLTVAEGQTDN

hu-CD226 His tag (human) = hu-CD226 His tag (human) (UniProt Q15762); test: SPR 25C, biotin-CD226-His captured, IgG analyte
Sequence of hu-CD226 His tag (human) (Q15762 19-247 limits assumed): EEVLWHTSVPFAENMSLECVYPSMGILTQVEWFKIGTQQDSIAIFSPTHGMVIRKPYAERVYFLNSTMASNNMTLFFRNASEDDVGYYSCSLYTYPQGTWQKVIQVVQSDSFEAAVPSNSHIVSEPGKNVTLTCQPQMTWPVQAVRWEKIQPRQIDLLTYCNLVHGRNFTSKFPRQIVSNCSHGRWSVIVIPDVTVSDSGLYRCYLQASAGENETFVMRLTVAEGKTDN

% positive [1]: 0.49%
% positive [2]: 0.27%
% positive [3]: 0.48%
% positive [4]: 0.18%
% positive [5]: 0.75%
% positive [6]: 0.42%
% positive [7]: 1.77%
% positive [8]: 2.05%
% positive [9]: 1.9%
% positive [10]: 2.34%
% positive [11]: 0.49%
% positive [12]: 0.14%
% positive [13]: 0.95%
% positive [14]: 1.42%
% positive [15]: 0.41%
% positive [16]: 0.11%
% positive [17]: 1.07%
% positive [18]: 1.5%
% positive [19]: 0.41%
% positive [20]: 0.06%
% positive [21]: 0.83%
% positive [22]: 1.09%
% positive [23]: 0.03%
% positive [24]: 1%
% positive [25]: 1.48%
% positive [26]: 0.76%
% positive [27]: 0.98%
CD155-Fc binding (MedFI) [28]: 71600 MedFI
CD155-Fc binding (MedFI) [29]: 71600 MedFI
CD155-Fc binding (MedFI) [30]: 66600 MedFI
CD155-Fc binding (MedFI) [31]: 76000 MedFI
CD155-Fc binding (MedFI) [32]: 64400 MedFI
CD155-Fc binding (MedFI) [33]: 65400 MedFI
CD155-Fc binding (MedFI) [34]: 64300 MedFI
Substance: muIgG1 control antibody

% positive [7]: 0.64%
% positive [8]: 4.61%
% positive [9]: 2.36%
% positive [10]: 3.1%
% positive [13]: 1.15%
% positive [14]: 4.67%
% positive [17]: 0.59%
% positive [18]: 4.04%
% positive [21]: 0.31%
% positive [22]: 3.98%
% positive [24]: 0.57%
% positive [25]: 5.5%
% positive [26]: 0.41%
% positive [27]: 5.29%
CD155-Fc binding (MedFI) [28]: 63100 MedFI
CD155-Fc binding (MedFI) [29]: 57300 MedFI
CD155-Fc binding (MedFI) [30]: 58300 MedFI
CD155-Fc binding (MedFI) [31]: 51700 MedFI
CD155-Fc binding (MedFI) [32]: 59400 MedFI
CD155-Fc binding (MedFI) [33]: 52800 MedFI
CD155-Fc binding (MedFI) [34]: 47700 MedFI
Substance: hu-IgG1 control antibody

% positive [2]: 15.8%
% positive [4]: 21.5%
% positive [6]: 22%
% positive [7]: 5.4%
% positive [8]: 94.3%
% positive [9]: 4.9%
% positive [10]: 91.9%
% positive [12]: 4%
% positive [13]: 5.2%
% positive [14]: 76.7%
% positive [16]: 0.2%
% positive [17]: 4.7%
% positive [18]: 27.4%
% positive [20]: 0.1%
% positive [21]: 5.2%
% positive [22]: 2%
% positive [23]: 0.1%
% positive [24]: 5%
% positive [25]: 0.9%
% positive [26]: 4.5%
% positive [27]: 1.3%
EC50 [35]: 1.1 nM
EC50 [36]: 1.15 nM
EC50 [37]: 1.22 nM
Human NK cell IFNγ secretion (fold over background), Ab 0.08 nM [38]: 1.38 fold
Human NK cell IFNγ secretion (fold over background), Ab 0.4 nM [38]: 0.69 fold
Human NK cell IFNγ secretion (fold over background), Ab 2 nM [38]: 1.27 fold
Human NK cell IFNγ secretion (fold over background), Ab 10 nM [38]: 1.39 fold
Human NK cell IFNγ secretion (fold over background), Ab 50 nM [38]: 1.68 fold
Human NK cell IFNγ secretion (fold over background), Ab 250 nM [38]: 1.62 fold
Human NK cell IFNγ secretion, EC50 [38]: 5.53 nM
Human NK cell IFNγ secretion, maximal efficacy relative to h10G1 [38]: 61%
EC50 (hu-CD96D1 D3-hFc (human)): 0.98 nM
CD155-Fc binding (MedFI) [28]: 5040 MedFI
Kd [39]: 14.3 nM
CD155-Fc binding (MedFI) [29]: 5040 MedFI
CD155-Fc binding (MedFI) [30]: 40300 MedFI
CD155-Fc binding (MedFI) [31]: 5050 MedFI
CD155-Fc binding (MedFI) [32]: 62600 MedFI
CD155-Fc binding (MedFI) [33]: 69300 MedFI
CD155-Fc binding (MedFI) [34]: 64100 MedFI
Kd (hu-CD96 Fc (human)): 14.2 nM
koff (hu-CD96 Fc (human)): 0.0012 s⁻¹
kon (hu-CD96 Fc (human)): 84400 M⁻¹ s⁻¹
IC50 [40]: 0.91 nM
IC50 [41]: 2.57 nM
Substance: NK92.39 (antibody)

Kd [42]: 0.02 nM
Kd (hu-CD226 His tag (human)): 6.9 nM
Substance: anti-hCD226 antibody DX11
